Assay results from patent US12467929.

Key:
[1] = target: recombinant UBE3A protein (Homo sapiens (Human)) (UniProt Q05086); assay: 2-step Simoa; capture GTX; UBE3A 0.1 ng/ml
[2] = target: recombinant UBE3A protein (Homo sapiens (Human)) (UniProt Q05086); assay: 3-step Simoa; capture MS 3E5; UBE3A 1 ng/ml
[3] = target: recombinant UBE3A protein (Homo sapiens (Human)) (UniProt Q05086); assay: 2-step Simoa; capture MS 3E5; UBE3A 1 ng/ml
[4] = target: recombinant UBE3A protein (Homo sapiens (Human)) (UniProt Q05086); assay: 3-step Simoa; capture MS 3E5; UBE3A 10 ng/ml
[5] = target: recombinant UBE3A protein (Homo sapiens (Human)) (UniProt Q05086); assay: 2-step Simoa; capture MS 3E5; UBE3A 10 ng/ml
[6] = target: recombinant UBE3A protein (Homo sapiens (Human)) (UniProt Q05086); assay: 3-step Simoa; capture MS 3E5; UBE3A 0.1 ng/ml
[7] = target: recombinant UBE3A protein (Homo sapiens (Human)) (UniProt Q05086); assay: 2-step Simoa; capture MS 3E5; UBE3A 0.1 ng/ml
[8] = target: recombinant UBE3A protein (Homo sapiens (Human)) (UniProt Q05086); assay: 3-step Simoa; capture MS 2F6; UBE3A 0.01 ng/ml
[9] = target: recombinant UBE3A protein (Homo sapiens (Human)) (UniProt Q05086); assay: 3-step Simoa; capture MS 3E5; UBE3A 0.01 ng/ml
[10] = target: recombinant UBE3A protein (Homo sapiens (Human)) (UniProt Q05086); assay: 2-step Simoa; capture MS 3E5; UBE3A 0.01 ng/ml
[11] = target: recombinant UBE3A protein (Homo sapiens (Human)) (UniProt Q05086); assay: 3-step Simoa; capture GTX; UBE3A 0.122 ng/ml
[12] = target: recombinant UBE3A protein (Homo sapiens (Human)) (UniProt Q05086); assay: Simoa head-to-head, Table 10; capture GTX; UBE3A 100 ng/ml
[13] = target: recombinant UBE3A protein (Homo sapiens (Human)) (UniProt Q05086); assay: Simoa head-to-head, Table 10; capture GTX; UBE3A 500 ng/ml
[14] = target: recombinant UBE3A protein (Homo sapiens (Human)) (UniProt Q05086); assay: Simoa head-to-head, Table 10; capture GTX; UBE3A 0.16 ng/ml
[15] = target: recombinant UBE3A protein (Homo sapiens (Human)) (UniProt Q05086); assay: Simoa head-to-head, Table 10; capture GTX; UBE3A 0.80 ng/ml
[16] = target: recombinant UBE3A protein (Homo sapiens (Human)) (UniProt Q05086); assay: Simoa head-to-head, Table 10; capture GTX; UBE3A 20.0 ng/ml
[17] = target: recombinant UBE3A protein (Homo sapiens (Human)) (UniProt Q05086); assay: Simoa head-to-head, Table 10; capture GTX; UBE3A 0.032 ng/ml
[18] = target: recombinant UBE3A protein (Homo sapiens (Human)) (UniProt Q05086); assay: Simoa; capture GTX; SBG 150 pm; UBE3A 0.800 ng/ml
[19] = target: recombinant UBE3A protein (Homo sapiens (Human)) (UniProt Q05086); assay: Simoa; capture GTX; SBG 150 pm; UBE3A 0.0320 ng/ml
[20] = target: recombinant UBE3A protein (Homo sapiens (Human)) (UniProt Q05086); assay: Simoa; capture GTX; 3E5 0.8 ug/ml; UBE3A 20.0 ng/ml
[21] = target: recombinant UBE3A protein (Homo sapiens (Human)) (UniProt Q05086); assay: Simoa; capture GTX; 3E5 0.4 ug/ml; UBE3A 0.00128 ng/ml
[22] = target: recombinant UBE3A protein (Homo sapiens (Human)) (UniProt Q05086); assay: Simoa; capture GTX; 3E5 0.8 ug/ml; UBE3A 0.00128 ng/ml

Chain of UniProt Q05086 (Q05086 whole entry): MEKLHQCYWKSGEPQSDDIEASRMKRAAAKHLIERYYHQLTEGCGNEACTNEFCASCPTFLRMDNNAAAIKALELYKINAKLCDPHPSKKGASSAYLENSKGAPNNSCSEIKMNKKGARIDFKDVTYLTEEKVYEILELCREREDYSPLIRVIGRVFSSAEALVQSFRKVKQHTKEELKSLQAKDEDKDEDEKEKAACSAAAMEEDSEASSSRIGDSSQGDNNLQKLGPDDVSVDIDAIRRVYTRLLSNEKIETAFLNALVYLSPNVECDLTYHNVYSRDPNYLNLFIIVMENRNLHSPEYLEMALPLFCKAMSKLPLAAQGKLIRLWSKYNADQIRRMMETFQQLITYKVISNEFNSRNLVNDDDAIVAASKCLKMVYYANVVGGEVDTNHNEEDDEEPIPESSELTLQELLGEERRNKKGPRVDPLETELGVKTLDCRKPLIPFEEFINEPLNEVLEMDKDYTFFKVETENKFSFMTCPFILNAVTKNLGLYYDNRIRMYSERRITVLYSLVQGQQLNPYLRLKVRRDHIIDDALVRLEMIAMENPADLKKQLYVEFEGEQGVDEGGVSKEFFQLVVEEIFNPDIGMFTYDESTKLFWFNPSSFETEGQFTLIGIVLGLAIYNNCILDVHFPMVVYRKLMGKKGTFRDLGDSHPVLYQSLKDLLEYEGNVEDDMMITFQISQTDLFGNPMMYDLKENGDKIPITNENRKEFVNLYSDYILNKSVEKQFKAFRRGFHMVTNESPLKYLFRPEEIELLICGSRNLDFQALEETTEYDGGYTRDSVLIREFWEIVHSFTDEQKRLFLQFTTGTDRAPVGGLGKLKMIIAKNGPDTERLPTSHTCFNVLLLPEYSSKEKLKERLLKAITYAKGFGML

GTX101092 (GeneTex) (antibody) showed an AEB1 [1] of 0.0525, an AEB2 [1] of 0.0487 and an Ave AEB [1] of 0.0506. For the same substance, the Signal to Background [1] was 1, the AEB1 [2] was 0.0655 and the AEB2 [2] was 0.0625. For the same substance, the Ave AEB [2] was 0.064, the Signal to Background [2] was 1.19 and the AEB1 [3] was 0.159. For the same substance, the AEB2 [3] was 0.165, the Ave AEB [3] was 0.162 and the Signal to Background [3] was 1.15. The AEB1 [4] was 0.151, the AEB2 [4] was 0.145 and the Ave AEB [4] was 0.148. For the same substance, the Signal to Background [4] was 2.77, the AEB1 [5] was 0.407 and the AEB2 [5] was 0.385. The Ave AEB [5] was 0.396, the Signal to Background [5] was 2.8 and the AEB1 [6] was 0.0546. It also gave an AEB2 [6] of 0.06, an Ave AEB [6] of 0.0573 and a Signal to Background [6] of 1.07. It also gave an AEB1 [7] of 0.161, an AEB2 [7] of 0.149 and an Ave AEB [7] of 0.155. The Signal to Background [7] was 1.1, the AEB1 [8] was 0.0162 and the AEB2 [8] was 0.0191. For the same substance, the Ave AEB [8] was 0.0176, the Signal to Background [8] was 0.94 and the AEB1 [9] was 0.0515. It also gave an AEB2 [9] of 0.05, an Ave AEB [9] of 0.0508 and a Signal to Background [9] of 0.946. For the same substance, the AEB1 [10] was 0.129, the AEB2 [10] was 0.134 and the Ave AEB [10] was 0.132. For the same substance, the Signal to Background [10] was 0.931.

In the case of NB500-240 (Novus) (antibody), the AEB1 [1] is reported as 0.0089, the AEB2 [1] is reported as 0.0108 and the Ave AEB [1] is reported as 0.0098. It also gave a Signal to Background [1] of 1.33, an AEB1 [2] of 0.004 and an AEB2 [2] of 0.0047. For the same substance, the Ave AEB [2] was 0.0044, the Signal to Background [2] was 1.31 and the AEB1 [3] was 0.0227. For the same substance, the AEB2 [3] was 0.0226, the Ave AEB [3] was 0.0226 and the Signal to Background [3] was 3.04. The AEB1 [11] was 0.0021, the AEB2 [11] was 0.002 and the Ave AEB [11] was 0.002. It also gave a Signal to Background [11] of 0.624, an AEB1 [4] of 0.0157 and an AEB2 [4] of 0.0129. It also gave an Ave AEB [4] of 0.0143, a Signal to Background [4] of 4.29 and an AEB1 [5] of 0.15. It also gave an AEB2 [5] of 0.14, an Ave AEB [5] of 0.145 and a Signal to Background [5] of 19.5. For the same substance, the AEB1 [6] was 0.0026, the AEB2 [6] was 0.0025 and the Ave AEB [6] was 0.0025. The Signal to Background [6] was 0.765, the AEB1 [7] was 0.009 and the AEB2 [7] was 0.0091. The Ave AEB [7] was 0.009, the Signal to Background [7] was 1.21 and the AEB1 [8] was 0.0086. It also gave an AEB2 [8] of 0.0101, an Ave AEB [8] of 0.0093 and a Signal to Background [8] of 1.07. For the same substance, the AEB1 [9] was 0.0038, the AEB2 [9] was 0.0032 and the Ave AEB [9] was 0.0035. It also gave a Signal to Background [9] of 1.05, an AEB1 [10] of 0.0065 and an AEB2 [10] of 0.007. The Ave AEB [10] was 0.0068, the Signal to Background [10] was 0.908 and the AEB1 [12] was 0.293. It also gave an AEB2 [12] of 0.288, an Ave AEB [12] of 0.291 and a Signal to Background [12] of 140. It also gave an AEB1 [13] of 0.282, an AEB2 [13] of 0.309 and an Ave AEB [13] of 0.296. The Signal to Background [13] was 142, the AEB1 [14] was 0.0038 and the AEB2 [14] was 0.004. It also gave an Ave AEB [14] of 0.0039, a Signal to Background [14] of 1.88 and an AEB1 [15] of 0.0085. It also gave an AEB2 [15] of 0.0124, an Ave AEB [15] of 0.0105 and a Signal to Background [15] of 5.03. It also gave an AEB1 [16] of 0.132, an AEB2 [16] of 0.131 and an Ave AEB [16] of 0.132. For the same substance, the Signal to Background [16] was 63.2, the AEB1 [17] was 0.0035 and the AEB2 [17] was 0.0027. It also gave an Ave AEB [17] of 0.0031 and a Signal to Background [17] of 1.49.

With “anti-UBE3A antibody 3E5 (SAB1404508-100 ug, Millipore-Sigma)” the AEB1 [18] was 0.271, the AEB2 [18] was 0.285 and the AEB3 [18] was 0.279. For the same substance, the Average AEB [18] was 0.278, the Signal to Background [18] was 21 and the AEB1 [19] was 0.0262. It also gave an AEB2 [19] of 0.0285, an AEB3 [19] of 0.0282 and an Average AEB [19] of 0.0276. It also gave a Signal to Background [19] of 2.08, an AEB1 [20] of 9.16 and an AEB2 [20] of 10.3. The AEB3 [20] was 9.37, the Average AEB [20] was 9.62 and the Signal to Background [20] was 78.5. It also gave an AEB1 [21] of 0.0769, an AEB2 [21] of 0.072 and an AEB3 [21] of 0.0724. For the same substance, the Average AEB [21] was 0.0738, the Signal to Background [21] was 1.18 and the AEB1 [22] was 0.109. The AEB2 [22] was 0.109, the AEB3 [22] was 0.112 and the Average AEB [22] was 0.11. The Signal to Background [22] was 0.897, the AEB1 [12] was 4.3 and the AEB2 [12] was 4.08. The Ave AEB [12] was 4.19, the Signal to Background [12] was 184 and the AEB1 [13] was 12.3. The AEB2 [13] was 11.6, the Ave AEB [13] was 11.9 and the Signal to Background [13] was 526. For the same substance, the AEB1 [14] was 0.0558, the AEB2 [14] was 0.0571 and the Ave AEB [14] was 0.0564. For the same substance, the Signal to Background [14] was 2.48, the AEB1 [15] was 0.144 and the AEB2 [15] was 0.14. The Ave AEB [15] was 0.142, the Signal to Background [15] was 6.24 and the AEB1 [16] was 2.26. It also gave an AEB2 [16] of 2.45, an Ave AEB [16] of 2.35 and a Signal to Background [16] of 104. It also gave an AEB1 [17] of 0.031, an AEB2 [17] of 0.0329 and an Ave AEB [17] of 0.0319. For the same substance, the Signal to Background [17] was 1.41.
